Data published in the supplement of paper PMC9112550, “Optimization of the antimicrobial peptide Bac7 by deep mutational scanning” (BMC Biology, 2022).

Test system: Escherichia coli TOP10
Assay: shrunken log2 fold change of peptide-encoding DNA abundance (4.5 h post-induction vs induction); higher = less antimicrobial activity (less host growth inhibition)
Details: time post-induction: 4.5 h; library: site-saturation at positions 5, 18, 19, 20
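Further: peptides expressed intracellularly from a pBAD plasmid library in pooled LB shake-flask culture, induced with 0.3% L-arabinose, DNA abundance read by NGS, three biological replicates, DESeq2 with apeglm shrinkage.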

Sequence	shrunken log2 fold change
RRIRWRPPRLPRPRPRPQSTPRP	0.02
RRIRCRPPRLPRPRPRPGSKPRP	-0.179
RRIRERPPRLPRPRPRPTRQPRP	0.588
RRIRWRPPRLPRPRPRPAVAPRP	0.544
RRIRDRPPRLPRPRPRPLSWPRP	0.488
RRIRFRPPRLPRPRPRPCTFPRP	-0.0554
RRIRKRPPRLPRPRPRPPAYPRP	0.417
RRIRIRPPRLPRPRPRPWSMPRP	-0.00809
RRIRIRPPRLPRPRPRPTSEPRP	0.00551
RRIRVRPPRLPRPRPRPFREPRP	0.0848
RRIRIRPPRLPRPRPRPQKNPRP	-0.355
RRIRDRPPRLPRPRPRPQDCPRP	-0.00195
RRIRPRPPRLPRPRPRPQEWPRP	0.0248
RRIRNRPPRLPRPRPRPTMSPRP	-0.453
RRIRARPPRLPRPRPRPEQNPRP	0.928
RRIRSRPPRLPRPRPRPPTQPRP	0.356
RRIRKRPPRLPRPRPRPEIFPRP	0.368
RRIRVRPPRLPRPRPRPFMHPRP	-0.156
RRIRQRPPRLPRPRPRPWIIPRP	-0.329
RRIRGRPPRLPRPRPRPSKFPRP	0.0363
RRIRGRPPRLPRPRPRPHPNPRP	0.547
RRIRYRPPRLPRPRPRPSCYPRP	-0.0789
RRIRARPPRLPRPRPRPRQQPRP	0.277
RRIRARPPRLPRPRPRPITIPRP	0.222
RRIRPRPPRLPRPRPRPHGWPRP	0.274

Sequence	shrunken log2 fold change
RRIRPRPPRLPRPRPRPLAHPRP	0.183
RRIRCRPPRLPRPRPRPVPMPRP	0.998
RRIRPRPPRLPRPRPRPHMNPRP	-0.6
RRIRCRPPRLPRPRPRPGCHPRP	-0.00885
RRIRGRPPRLPRPRPRPFGFPRP	0.828
RRIRSRPPRLPRPRPRPWFQPRP	-0.246
RRIRARPPRLPRPRPRPEWIPRP	0.129
RRIRQRPPRLPRPRPRPGCIPRP	-0.306
RRIRARPPRLPRPRPRPKAHPRP	0.491
RRIRARPPRLPRPRPRPNNTPRP	-0.423
RRIRKRPPRLPRPRPRPPMDPRP	0.587
RRIRWRPPRLPRPRPRPGGRPRP	0.418
RRIRFRPPRLPRPRPRPPEPPRP	0.54
RRIRNRPPRLPRPRPRPDFNPRP	-0.186
RRIRWRPPRLPRPRPRPRGDPRP	1.03
RRIRQRPPRLPRPRPRPIASPRP	-0.0483
RRIRGRPPRLPRPRPRPIHCPRP	-0.0922
RRIRIRPPRLPRPRPRPGTPPRP	-0.0727
RRIRDRPPRLPRPRPRPSIIPRP	-0.266
RRIRIRPPRLPRPRPRPEIKPRP	-0.14
RRIRLRPPRLPRPRPRPVVYPRP	-0.058
RRIRDRPPRLPRPRPRPDFEPRP	1.35
RRIRIRPPRLPRPRPRPIRDPRP	-0.0759
RRIRDRPPRLPRPRPRPGEDPRP	-0.000687
RRIRKRPPRLPRPRPRPHSGPRP	0.066

Sequence	shrunken log2 fold change
RRIRRRPPRLPRPRPRPNRDPRP	-0.062
RRIRNRPPRLPRPRPRPDVRPRP	-0.104
RRIRKRPPRLPRPRPRPWIWPRP	1.96
RRIRTRPPRLPRPRPRPAHNPRP	-0.215
RRIRIRPPRLPRPRPRPNGCPRP	-0.0792
RRIRWRPPRLPRPRPRPASEPRP	0.329
RRIRNRPPRLPRPRPRPPSMPRP	-0.0213
RRIRERPPRLPRPRPRPISMPRP	2.71
RRIRNRPPRLPRPRPRPNHEPRP	-0.00884
RRIRLRPPRLPRPRPRPTQRPRP	0.248
RRIRVRPPRLPRPRPRPVKGPRP	-0.0226
RRIRRRPPRLPRPRPRPHAIPRP	-0.042
RRIRDRPPRLPRPRPRPFPAPRP	0.0806
RRIRIRPPRLPRPRPRPKQLPRP	-0.0927
RRIRPRPPRLPRPRPRPVHQPRP	-0.00254
RRIRVRPPRLPRPRPRPVNYPRP	0.0937
RRIRCRPPRLPRPRPRPEELPRP	0.249
RRIRFRPPRLPRPRPRPGPHPRP	0.305
RRIRCRPPRLPRPRPRPRIPPRP	-0.00295
RRIRGRPPRLPRPRPRPIVVPRP	0.962
RRIRERPPRLPRPRPRPQYEPRP	-0.624
RRIRPRPPRLPRPRPRPFAFPRP	0.00781
RRIRFRPPRLPRPRPRPNPGPRP	0.159
RRIRYRPPRLPRPRPRPWMNPRP	-0.00197
RRIRQRPPRLPRPRPRPAHKPRP	-0.0849

Sequence	shrunken log2 fold change
RRIRRRPPRLPRPRPRPMLTPRP	0.211
RRIRKRPPRLPRPRPRPETHPRP	0.736
RRIRMRPPRLPRPRPRPSDQPRP	-0.198
RRIRIRPPRLPRPRPRPESPPRP	-0.135
RRIRYRPPRLPRPRPRPWAAPRP	-0.0914
RRIRYRPPRLPRPRPRPTWNPRP	-0.424
RRIRVRPPRLPRPRPRPQWGPRP	-0.149
RRIRMRPPRLPRPRPRPIDSPRP	0.165
RRIRARPPRLPRPRPRPSPCPRP	0.0808
RRIRDRPPRLPRPRPRPLMQPRP	0.823
RRIRTRPPRLPRPRPRPGTIPRP	-0.0982
RRIRVRPPRLPRPRPRPETPPRP	1.14
RRIRFRPPRLPRPRPRPAQQPRP	-0.0456
RRIRQRPPRLPRPRPRPNGNPRP	-0.405
RRIRIRPPRLPRPRPRPLNIPRP	-0.925
RRIRTRPPRLPRPRPRPGRIPRP	-0.171
RRIRNRPPRLPRPRPRPSKWPRP	-0.213
RRIRMRPPRLPRPRPRPKYLPRP	-0.278
RRIRDRPPRLPRPRPRPTRMPRP	0.154
RRIRARPPRLPRPRPRPRFRPRP	0.459
RRIRTRPPRLPRPRPRPIWLPRP	-0.201
RRIRCRPPRLPRPRPRPAVEPRP	-0.0939
RRIRRRPPRLPRPRPRPMPMPRP	0.0681
RRIRIRPPRLPRPRPRPVKQPRP	0.101
RRIRTRPPRLPRPRPRPHPPPRP	0.271

Sequence	shrunken log2 fold change
RRIRLRPPRLPRPRPRPVKMPRP	-0.327
RRIRDRPPRLPRPRPRPANGPRP	-0.0137
RRIRPRPPRLPRPRPRPRNYPRP	0.000451
RRIRYRPPRLPRPRPRPKPSPRP	0.433
RRIRWRPPRLPRPRPRPYSSPRP	-1.07
RRIRARPPRLPRPRPRPRQTPRP	0.535
RRIRCRPPRLPRPRPRPKMVPRP	-0.0546
RRIRPRPPRLPRPRPRPETMPRP	0.00383
RRIRTRPPRLPRPRPRPHFKPRP	-0.307
RRIRWRPPRLPRPRPRPNIWPRP	-0.153
RRIRCRPPRLPRPRPRPKLHPRP	-0.113
RRIRHRPPRLPRPRPRPNRGPRP	-0.123
RRIRNRPPRLPRPRPRPDHMPRP	-0.00141
RRIRARPPRLPRPRPRPEKKPRP	0.275
RRIRQRPPRLPRPRPRPRNLPRP	0.242
RRIRHRPPRLPRPRPRPHMHPRP	-0.687
RRIRKRPPRLPRPRPRPIDDPRP	0.0889
RRIRVRPPRLPRPRPRPLKCPRP	-0.412
RRIRERPPRLPRPRPRPISGPRP	-0.564
RRIRARPPRLPRPRPRPDSNPRP	0.179
RRIRQRPPRLPRPRPRPQMVPRP	0.00426
RRIRWRPPRLPRPRPRPSLSPRP	1.36
RRIRYRPPRLPRPRPRPFSDPRP	-0.03
RRIRDRPPRLPRPRPRPYDAPRP	-0.00235
RRIRARPPRLPRPRPRPDVCPRP	-0.0214

Sequence	shrunken log2 fold change
RRIRTRPPRLPRPRPRPWEGPRP	0.0154
RRIRIRPPRLPRPRPRPNFVPRP	0.0196
RRIRERPPRLPRPRPRPYIKPRP	-0.573
RRIRCRPPRLPRPRPRPNYMPRP	-0.677
RRIRCRPPRLPRPRPRPPPQPRP	1.34
RRIRERPPRLPRPRPRPDLEPRP	-0.0701
RRIRTRPPRLPRPRPRPSDMPRP	0.185
RRIRMRPPRLPRPRPRPSARPRP	1.07
RRIRKRPPRLPRPRPRPMGTPRP	0.335
RRIRLRPPRLPRPRPRPILGPRP	-0.0186
RRIRGRPPRLPRPRPRPDAVPRP	1.81
RRIRHRPPRLPRPRPRPVYYPRP	-1.02
RRIRRRPPRLPRPRPRPPASPRP	0.615
RRIRTRPPRLPRPRPRPVPCPRP	-0.0501
RRIRDRPPRLPRPRPRPKSNPRP	-0.305
RRIRVRPPRLPRPRPRPPQYPRP	-0.19
RRIRSRPPRLPRPRPRPPNEPRP	0.0505
RRIRHRPPRLPRPRPRPCMIPRP	-0.277
RRIRWRPPRLPRPRPRPLAYPRP	0.0203
RRIRGRPPRLPRPRPRPPEIPRP	0.851
RRIRIRPPRLPRPRPRPFFWPRP	0.364
RRIRQRPPRLPRPRPRPNWWPRP	0.00333
RRIRCRPPRLPRPRPRPPGEPRP	0.609
RRIRSRPPRLPRPRPRPNAHPRP	-0.184
RRIRYRPPRLPRPRPRPNLVPRP	-0.0754
